# Laboratory results as given in paper PMC6504924, “Utilizing a Simple Method for Stoichiometric Protein Labeling to Quantify Antibody Blockade” (Scientific Reports, 2019).
# B1: unlabeled PDGF-BB homodimer purified in the same manner (with CDN N-terminal appendage) (ligand)
# chain: CDNSLGSLTIAEPAMIAECKTRTEVFEISRRLIDRTNANFLVWPPCVEVQRCSGCCNNRNVQCRPTQVQLRPVQVRKIEIVRKKPIFKKATVTLEDHLACKCETVAAARPVT
# notes: three-amino acid N-terminal appendage left after HaloTEV cleavage of the modified TEV site EDLYFQC; platelet-derived growth factor subunit B (PDGF-B); Disulfide-linked homodimer; also called PDFG-B; source: HEK293T, transiently expressed as secreted HaloTag fusion, purified (HaloLink beads, HaloTEV release); not shown: HaloTag, N-terminal, cleaved
# B2: unlabeled VEGF165a homodimer purified in the same manner (with CDN N-terminal appendage) (ligand)
# chain: CDNAPMAEGGGQNHHEVVKFMDVYQRSYCHPIETLVDIFQEYPDEIEYIFKPSCVPLMRCGGCCNDEGLECVPTEESNITMQIMRIKPHQGQHIGEMSFLQHNKCECRPKKDRARQENPCGPCSERRKHLFVQDPQTCKCSCKNTDSRCKARQLELNERTCRCDKPRR
# modifications: disulfide-linked homodimer; unlabeled; mature VEGF165 limits by convention (191-aa AUG-initiated isoform precursor, signal 1-26) / disulfide-linked homodimer; unlabeled; mature VEGF165 limits by …
# Columns and labels:
# [1] = target: the molecule itself; assay: SDS-PAGE with and without reducing agent; purified growth factors resolved by SDS-PAGE in the presence and absence of 100 mM dithiothreitol (DTT)
# [2] = target: T1, unlabeled VEGF165a homodimer purified in the same manner (with CDN N-terminal appendage); assay: as above; conditions: both partners purified
# T1 chain: B2 chain
Binder,stoichiometry N [1],stoichiometry N [2]
B1,2,
B2,,2
